Reference: doi:10.1101/2022.03.18.484894, “Molecular determinants of the Bacillus subtilis chromosome origin basal unwinding system”

Assays:
DnaA R264A = DnaA R264A (Bacillus subtilis, UniProt P05648 1-446, R264A); assay: EMSA; smaller complex that enters the gel; EMSA: 13 nM scaffold, 250-1000 nM DnaA, 10 mM HEPES-KOH pH 8, 100 mM K-glutamate, 1 mM Mg acetate, 30% glycerol, 10% DMSO, 1 mM ADP or ATP, 20 C, 3 h; 6% PAGE with 5 mM MgCl2; conditions: protein: recombinant; tags: none after cleavage of His14-SUMO; label: 5'-Cy3 on strand 1 (oHM752); 5'-Cy5 on strand 2 (oHM590); three-strand duplex: strands 1 and 2 adjacent (nick) on 41-nt strand 3, blunt
DnaA [1] = molecular target: T1, DnaA (Bacillus subtilis, UniProt P05648 1-446); assay: EMSA; ATP; large complex near the well plus strand separation; EMSA: 13 nM scaffold, 250-1000 nM DnaA, 10 mM HEPES-KOH pH 8, 100 mM K-glutamate, 1 mM Mg acetate, 30% glycerol, 10% DMSO, 1 mM ADP or ATP, 20 C, 3 h; 6% PAGE with 5 mM MgCl2; conditions: protein: recombinant; tags: none after cleavage of His14-SUMO; label: 5'-Cy3 on strand 1 (oHM752); 5'-Cy5 on strand 2 (oHM590); three-strand duplex: strands 1 and 2 adjacent (nick) on 41-nt strand 3, blunt
DnaA [2] = molecular target: T1, DnaA; assay: EMSA; ATP; large complexes enter the gel poorly; EMSA: 13 nM scaffold, 250-1000 nM DnaA, 10 mM HEPES-KOH pH 8, 100 mM K-glutamate, 1 mM Mg acetate, 30% glycerol, 10% DMSO, 1 mM ADP or ATP, 20 C, 3 h; 6% PAGE with 5 mM MgCl2; conditions: protein: recombinant; tags: none after cleavage of His14-SUMO; label: Cy3 on annealed strand; Cy5 on separated strand; three-strand scaffold

B1: B. subtilis WT BUS scaffold (EMSA substrate) (dsDNA)
DNA 1: ACTTATCCACAAATCCACAGGCCC
DNA 2: TACTATTACTTCTACTA
DNA 3: TAGTAGAAGTAATAGTAGGGCCTGTGGATTTGTGGATAAGT
binding result (DnaA R264A): binds | binding result (DnaA [1]): binds

B2: BUS scaffold with phosphorothioate backbone (EMSA) (XNA)
DNA 1: ACTTATCCACAAATCCACAGGCC
DNA 2: CTACTATTACTTCTACTA
DNA 3: B1 DNA 3
modifications: phosphorothioate linkages in the DnaA-trio region; exact positions of the EMSA version not stated
binding result (DnaA [2]): binds
